± gives the standard deviation.
Assay: collision cross section of modified peptide (TIMS, N2, iRT-aligned); higher = larger / more extended gas-phase ion
Outline: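 On a timsTOF Pro/HT (dda-PASEF, nitrogen, ~2.4 mbar), synthetic peptide pools were analysed after a 120-min nanoflow C18 separation at 60 °C and identified in MaxQuant. Three reference ions served for 1/K0 calibration, with run-wise alignment to the median iRT peptide deviation. Collision cross section comes from the Mason-Schamp equation, using the most abundant feature per charge state averaged over 1–3 technical replicates.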

[1] = charge state: 2, modification: Formyl
[2] = charge state: 2, modification: Malonyl
[3] = charge state: 2, modification: Nitro (Y)
[4] = charge state: 2, modification: GlyGly (K)
[5] = charge state: 3, modification: GlyGly (K)
[6] = charge state: 2, modification: Butyryl
[7] = charge state: 3, modification: Butyryl
[8] = charge state: 3, modification: Formyl
[9] = charge state: 2, modification: Dimethyl (K)
[10] = charge state: 3, modification: Dimethyl (K)
[11] = charge state: 2, modification: Phospho (Y)

## SEASSEFAKK [_SEASSEFAK(Formyl)K_]
[1]
  collision cross section: 345.37 ± 1.6 Å²

## GAEKTEVAEPR [_GAEK(Biotin)TEVAEPR_]
Charge state: 2, modification: Biotin
  collision cross section: 393.63 Å²

## VNALKNLQVK [_VNALK(Formyl)NLQVK_]
[1]
  collision cross section: 363.1 ± 0.39 Å²

## PASGAGAGAGAGKR [_PASGAGAGAGAGK(Malonyl)R_]
[2]
  collision cross section: 352.42 ± 0.026 Å²

## CSVLAAANPVYGR [_CSVLAAANPVY(Nitro (Y))GR_]
[3]
  collision cross section: 387.22 ± 0.17 Å²

## TQAYQDQKPGTSGLR [_TQAYQDQK(GlyGly (K))PGTSGLR_]
[4]
  collision cross section: 432.62 ± 1.4 Å²
[5]
  collision cross section: 500.32 ± 0.35 Å²

## VGIDTPDIDIHGPEGKLK [_VGIDTPDIDIHGPEGK(GlyGly (K))LK_]
[4]
  collision cross section: 467.27 Å²
[5]
  collision cross section: 525.5 ± 1.3 Å²

## FSHSVQNSERGK [_FSHSVQNSER(Methyl (R))GK_]
Charge state: 2, modification: Methyl (R)
  collision cross section: 405.91 ± 1.3 Å²
Charge state: 3, modification: Methyl (R)
  collision cross section: 465.06 ± 2.1 Å²

## VQGGALEDSQLVAGVAFKK [_VQGGALEDSQLVAGVAFK(Succinyl)K_]
Charge state: 2, modification: Succinyl
  collision cross section: 480.13 ± 1.2 Å²

## LEKTIDDLEEK [_LEK(Gluratylation)TIDDLEEK_]
Charge state: 2, modification: Glutarylation
  collision cross section: 410.17 ± 1.1 Å²

## DDSNLYINVK [_DDSNLY(Nitro (Y))INVK_]
[3]
  collision cross section: 367.46 ± 0.55 Å²

## LLFSNTAAQKLR [_LLFSNTAAQK(Formyl)LR_]
[1]
  collision cross section: 395.38 ± 0.55 Å²

## VLDSGAPIKIPVGPETLGR [_VLDSGAPIK(Formyl)IPVGPETLGR_]
[1]
  collision cross section: 463.34 ± 1.2 Å²

## TLQKQSVVYGGK [_TLQK(Malonyl)QSVVYGGK_]
[2]
  collision cross section: 395.45 ± 1.1 Å²

## VTLEVGKVIQQGR [_VTLEVGK(Butyryl)VIQQGR_]
[6]
  collision cross section: 412.79 ± 0.23 Å²
[7]
  collision cross section: 483.04 ± 1.9 Å²

## VGLQVVAVKAPGFGDNR [_VGLQVVAVK(Formyl)APGFGDNR_]
[1]
  collision cross section: 440.17 ± 1.2 Å²
[8]
  collision cross section: 529.54 ± 3 Å²

## GEVGAGAGPGAQAGPSAKR [_GEVGAGAGPGAQAGPSAK(Dimethyl (K))R_]
[9]
  collision cross section: 422.35 ± 0.53 Å²
[10]
  collision cross section: 490.58 ± 1.6 Å²

## VELCSFSGYK [_VELCSFSGY(Phospho (Y))K_]
[11]
  collision cross section: 372.99 ± 0.08 Å²

## VLTANSNPSSPSAAKR [_VLTANSNPSSPSAAK(Formyl)R_]
[1]
  collision cross section: 421.8 ± 0.8 Å²
[8]
  collision cross section: 501.92 ± 27 Å²

## GPQNATDSYVHK [_GPQNATDSY(Nitro (Y))VHK_]
[3]
  collision cross section: 386.3 ± 0.94 Å²
Charge state: 3, modification: Nitro (Y)
  collision cross section: 449.51 ± 0.23 Å²

## GHYTIGK [_GHY(Phospho (Y))TIGK_]
[11]
  collision cross section: 330.16 ± 0.068 Å²

## VGIDTPDIDIHGPEGKLK [_VGIDTPDIDIHGPEGK(Acetyl (K))LK_]
Charge state: 2, modification: Acetyl (K)
  collision cross section: 490.05 Å²
Charge state: 3, modification: Acetyl (K)
  collision cross section: 536.56 ± 1.2 Å²

## RFGGPVHHQAQR [_R(Citrullination (R))FGGPVHHQAQR_]
Charge state: 2, modification: Citrullination (R)
  collision cross section: 387.08 ± 0.89 Å²
Charge state: 3, modification: Citrullination (R)
  collision cross section: 477.19 ± 0.94 Å²

## SSFAYKDQNENR [_SSFAYK(Butyryl)DQNENR_]
[6]
  collision cross section: 402.63 ± 0.85 Å²
[7]
  collision cross section: 462.59 ± 3.8 Å²

## FGTINIVHPKLGSYTK [_FGTINIVHPK(Butyryl)LGSYTK_]
[6]
  collision cross section: 477.38 ± 1.1 Å²
[7]
  collision cross section: 553.18 ± 2.9 Å²

## GFALVGVGSEASSKK [_GFALVGVGSEASSK(Dimethyl (K))K_]
[9]
  collision cross section: 439.69 ± 1.2 Å²
[10]
  collision cross section: 485.09 ± 1.2 Å²

## LGNDFHTNKR [_LGNDFHTNK(Crotonyl)R_]
Charge state: 2, modification: Crotonyl
  collision cross section: 379.22 ± 1.3 Å²
Charge state: 3, modification: Crotonyl
  collision cross section: 445.34 ± 2 Å²
